Kd data for one molecule are collected here from patent US6461867.

The Kd is the constant that tells how readily two partners part at equilibrium. High values mean lower affinity, low ones higher affinity.

The assay has as its target SEV-9 peptide (Sendai virus nucleoprotein 324-332) (Sendai virus).

B1: soluble H-2K^b (K^bsol), empty heterodimer of truncated K^b heavy chain and murine β-2 microglobulin (other)
alpha: GPHSLRYFVTAVSRPGLGEPRYMEVGYVDDTEFVRFDSDAENPRYEPRARWMEQEGPEYWERETQKAKGNEQSFRVDLRTLLGYYNQSKGGSHTIQVISGCEVGSDGRLLRGYQQYAYDGCDYIALNEDLKTWTAADMAALITKHKWEQAGEAERLRAYLEGTCVEWLRRYLKNGNATLLRTDSPKAHVTHHSRPEDKVTLRCWALGFYPADITLTWQLNGEELIQDMELVETRPAGDGTFQKWASVVVPLGKEQYYTCHVYHQGLPEPLTLRW
beta: IQKTPQIQVYSRHPPENGKPNILNCYVTQFHPPHIEIQMLKNGKKIPKVEMSDMSFSKDWSFYILAHTEFTPTETDTYACRVKHASMAEPKTVYWDRDM
As for B1, the Kd is 2.7 nM.
